{"source": "patent US20230183322A1", "about": "(published 2023)", "binders": {"B1": {"name": "antigen-binding unit ABU-174 (antibody, V domains shown)", "VH": "QVQLQQWGAGLLKPSETLSLTCAVYGGSFSDYYWNWIRRPPGKGLEWIGEITHSGSTNYNPSLKSRVTISVDTSKNQFSLKLSSVTAADTAVYYCARGQGYGRVLLWFGEWGQGTLVTVSS", "VL": "EIVLTQSPATLSLSPGERATLSCRASQSVSTYLAWYQQKPGQAPRLLIYDASNRATGIPARFSGSGSGTDFTLTISSLEPEDFAVYYCQQRSNWITFGQGTRLEIK"}}, "target": "spike protein (Spike, S protein) of SARS-CoV-2 (UniProt P0DTC2 14-1273)", "assay": "SPR", "data": [{"binder": "B1", "values": [{"measurement": "Kd", "result": 0.285, "unit": "nM"}]}]}
